Source: US20160089413

Tested on: all-D-retro-inverso JNK-inhibitor (poly-)peptide of SEQ ID NO: 11

In the case of c-Jun NH2-terminal kinases (JNK), the “c-Jun phosphorylation in RPE/choroid, densitometry of phospho c-Jun relative to tubulin, 24 h after IV injection (20 µg/kg)” value is reported as 0.28±0.01 vs 0.77±0.26 in IV of vehicle, the “c-Jun phosphorylation in RPE/choroid, densitometry of phospho c-Jun relative to tubulin, 24 h after IVT injection (0.2 µg/injection)” value is reported as 0.35±0.08 vs 0.79±0.25 in IVT of vehicle and the “c-Jun phosphorylation in RPE/choroid, densitometry of phospho c-Jun relative to tubulin, fold decrease against vehicle” value is reported as “An approximately 3-fold decrease in c-Jun phosphorylation”.
